Reference: US20220332804A1 (CSL INNOVATION, published 2022)

Tests used:
Assay in all cases: SPR, mAb captured, C2 mutant analyte;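 further: Anti-C2 mAbs captured on goat anti-human IgG Biacore CM5 chips, alanine or serine C2 surface mutants flowed over at 37 °C, double-referenced sensorgrams fitted to a 1:1 binding model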
human C2 F270A = target: T1, human C2 F270A (human, UniProt P06681 21-752)
T1 sequence: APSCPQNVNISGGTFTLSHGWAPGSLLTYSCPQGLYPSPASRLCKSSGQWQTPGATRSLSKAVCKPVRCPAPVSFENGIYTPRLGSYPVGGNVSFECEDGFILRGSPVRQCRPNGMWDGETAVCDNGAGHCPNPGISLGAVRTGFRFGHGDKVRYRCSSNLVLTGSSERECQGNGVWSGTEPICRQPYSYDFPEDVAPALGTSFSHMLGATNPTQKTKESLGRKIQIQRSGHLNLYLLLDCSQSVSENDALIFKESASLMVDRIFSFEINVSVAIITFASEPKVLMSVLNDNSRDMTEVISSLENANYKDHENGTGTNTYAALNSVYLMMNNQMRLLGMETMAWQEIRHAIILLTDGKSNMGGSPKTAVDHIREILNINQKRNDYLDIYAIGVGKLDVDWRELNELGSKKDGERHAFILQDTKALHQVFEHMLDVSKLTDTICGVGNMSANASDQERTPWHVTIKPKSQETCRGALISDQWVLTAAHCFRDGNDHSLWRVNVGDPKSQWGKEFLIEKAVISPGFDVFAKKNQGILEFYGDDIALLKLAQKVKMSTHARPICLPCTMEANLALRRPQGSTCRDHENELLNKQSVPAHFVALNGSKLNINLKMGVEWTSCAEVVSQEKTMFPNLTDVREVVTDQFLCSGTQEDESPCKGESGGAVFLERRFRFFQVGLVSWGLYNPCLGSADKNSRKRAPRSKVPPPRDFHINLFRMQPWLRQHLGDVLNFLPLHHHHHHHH

human C2 K430A = target: T2, human C2 K430A (human, UniProt P06681 21-752)
T2 sequence: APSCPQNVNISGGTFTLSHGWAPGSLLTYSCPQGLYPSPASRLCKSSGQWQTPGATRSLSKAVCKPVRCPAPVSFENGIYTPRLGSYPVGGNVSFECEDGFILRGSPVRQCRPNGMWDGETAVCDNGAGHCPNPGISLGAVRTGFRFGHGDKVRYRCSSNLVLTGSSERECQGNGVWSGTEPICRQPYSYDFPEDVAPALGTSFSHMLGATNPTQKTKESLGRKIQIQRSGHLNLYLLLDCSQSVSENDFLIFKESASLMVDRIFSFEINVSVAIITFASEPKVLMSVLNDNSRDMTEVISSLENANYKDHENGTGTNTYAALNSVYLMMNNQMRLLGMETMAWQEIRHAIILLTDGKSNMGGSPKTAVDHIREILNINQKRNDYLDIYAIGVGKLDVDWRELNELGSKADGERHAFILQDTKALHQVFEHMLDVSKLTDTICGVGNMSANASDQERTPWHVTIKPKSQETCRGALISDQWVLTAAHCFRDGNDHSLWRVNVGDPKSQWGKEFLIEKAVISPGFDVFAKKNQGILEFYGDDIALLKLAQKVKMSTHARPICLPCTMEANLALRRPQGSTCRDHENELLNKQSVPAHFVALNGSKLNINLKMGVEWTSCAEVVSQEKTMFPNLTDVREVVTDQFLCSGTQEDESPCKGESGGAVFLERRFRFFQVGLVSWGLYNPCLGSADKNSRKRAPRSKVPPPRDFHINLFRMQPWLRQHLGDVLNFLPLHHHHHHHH

human C2 H331A = target: T3, human C2 H331A (human, UniProt P06681 21-752)
T3 sequence: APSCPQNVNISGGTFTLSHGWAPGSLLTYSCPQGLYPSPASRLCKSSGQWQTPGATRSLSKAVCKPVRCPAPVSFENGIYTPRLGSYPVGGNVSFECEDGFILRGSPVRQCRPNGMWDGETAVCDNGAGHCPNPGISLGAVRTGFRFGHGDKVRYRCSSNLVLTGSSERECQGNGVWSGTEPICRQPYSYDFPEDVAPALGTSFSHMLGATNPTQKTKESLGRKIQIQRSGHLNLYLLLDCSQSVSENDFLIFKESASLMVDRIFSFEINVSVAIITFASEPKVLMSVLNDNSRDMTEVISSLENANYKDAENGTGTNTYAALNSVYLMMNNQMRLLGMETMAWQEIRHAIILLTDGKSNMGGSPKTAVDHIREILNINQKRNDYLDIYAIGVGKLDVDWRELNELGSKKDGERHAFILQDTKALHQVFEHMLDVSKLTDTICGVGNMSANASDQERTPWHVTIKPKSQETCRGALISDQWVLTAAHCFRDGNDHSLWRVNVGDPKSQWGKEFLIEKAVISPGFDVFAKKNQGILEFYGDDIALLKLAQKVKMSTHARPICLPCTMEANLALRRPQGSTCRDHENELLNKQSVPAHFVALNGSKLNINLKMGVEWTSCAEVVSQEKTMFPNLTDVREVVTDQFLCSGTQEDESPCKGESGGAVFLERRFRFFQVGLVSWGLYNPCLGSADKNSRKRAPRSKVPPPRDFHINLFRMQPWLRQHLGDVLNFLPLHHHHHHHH

human C2 A470S = target: T4, human C2 A470S (human, UniProt P06681 21-752)
T4 sequence: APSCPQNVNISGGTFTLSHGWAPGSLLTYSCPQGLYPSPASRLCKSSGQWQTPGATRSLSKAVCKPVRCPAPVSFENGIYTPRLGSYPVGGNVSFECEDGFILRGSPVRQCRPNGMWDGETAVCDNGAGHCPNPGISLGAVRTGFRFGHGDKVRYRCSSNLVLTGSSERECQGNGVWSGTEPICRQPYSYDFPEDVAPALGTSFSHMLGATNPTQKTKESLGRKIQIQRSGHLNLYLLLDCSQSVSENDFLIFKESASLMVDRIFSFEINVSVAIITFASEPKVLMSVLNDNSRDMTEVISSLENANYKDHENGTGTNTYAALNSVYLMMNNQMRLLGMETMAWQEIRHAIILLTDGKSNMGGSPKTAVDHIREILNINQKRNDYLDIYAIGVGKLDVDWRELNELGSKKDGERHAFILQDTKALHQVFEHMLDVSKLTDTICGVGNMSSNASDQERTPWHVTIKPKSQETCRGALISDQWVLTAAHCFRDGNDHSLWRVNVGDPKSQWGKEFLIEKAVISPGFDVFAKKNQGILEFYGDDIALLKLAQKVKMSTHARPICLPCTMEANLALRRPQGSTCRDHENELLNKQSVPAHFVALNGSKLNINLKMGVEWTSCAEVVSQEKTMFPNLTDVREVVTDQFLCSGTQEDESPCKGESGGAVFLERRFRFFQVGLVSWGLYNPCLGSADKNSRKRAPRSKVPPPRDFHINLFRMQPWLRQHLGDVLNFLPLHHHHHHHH

B1: RF16-214 (antibody, V domains shown)
VH: EVQLLESGGGLVQPGGSLRLSCAASGFTFSWYQMMWVRQAPGKGLEWVSRIYPSGGGTAYADSVKGRFTISRDNSKNTLYLQMNSLRAEDTAVYYCARDAGYGDNWGQGTLVTVSS
VL: QSALTQPPSVSVSPGQTASITCSGDKLGEKYASWYQQKAGQSPVMVIYQDRKRPSGIPERFSGSNSGNTATLTISGTQAMDEADYYCQAWDTRAVVFGGGTKLTVLG
With B1 the binding result (human C2 F270A) was “no binding”, the Kd (human C2 K430A) was 308 nM and the binding result (human C2 H331A) was “no binding”. It also gave a Kd (human C2 A470S) of 32.8 nM.
